Results: PMC12861225

B1: Tissue-nonspecific alkaline phosphatase (TNALP): N230Q/N303Q (protein)
parent chain: MISPFLVLAIGTCLTNSLVPEKEKDPKYWRDQAQETLKYALELQKLNTNVAKNVIMFLGDGMGVSTVTAARILKGQLHHNPGEETRLEMDKFPFVALSKTYNTNAQVPDSAGTATAYLCGVKANEGTVGVSAATERSRCNTTQGNEVTSILRWAKDAGKSVGIVTTTRVNHATPSAAYAHSADRDWYSDNEMPPEALSQGCKDIAYQLMHNIRDIDVIMGGGRKYMYPKNKTDVEYESDEKARGTRLDGLDLVDTWKSFKPRYKHSHFIWNRTELLTLDPHNVDYLLGLFEPGDMQYELNRNNVTDPSLSEMVVVAIQILRKNPKGFFLLVEGGRIDHGHHEGKAKQALHEAVEMDRAIGQAGSLTSSEDTLTVVTADHSHVFTFGGYTPRGNSIFGLAPMLSDTDKKPFTAILYGNGPGYKVVGGERENVSMVDYAHNNYQAQSAVPLRHETHGGEDVAVFSKGPMAHLLHGVHEQNYVPHVMAYAACIGANLGHCAPASSAGSLAAGPLLLALALYPLSVLF
B2: Tissue-nonspecific alkaline phosphatase (TNALP): N230Q/N430D (protein)
parent chain: B1 parent chain
B3: Tissue-nonspecific alkaline phosphatase (TNALP): N271Q/N303Q (protein)
parent chain: B1 parent chain
B4: Tissue-nonspecific alkaline phosphatase (TNALP): N271Q/N430D (protein)
parent chain: B1 parent chain
B5: Tissue-nonspecific alkaline phosphatase (TNALP): N303Q/N430D (protein)
parent chain: B1 parent chain
B6: Tissue-nonspecific alkaline phosphatase (TNALP): N140Q/N230Q/N430D (protein)
parent chain: B1 parent chain
B7: Tissue-nonspecific alkaline phosphatase (TNALP): N230Q/N271Q/N303Q (protein)
parent chain: B1 parent chain
B8: Tissue-nonspecific alkaline phosphatase (TNALP): N230Q/N271Q/N430D (protein)
parent chain: B1 parent chain
B9: Tissue-nonspecific alkaline phosphatase (TNALP): N140Q (protein)
parent chain: B1 parent chain
B10: Tissue-nonspecific alkaline phosphatase (TNALP): N230Q (protein)
parent chain: B1 parent chain
B11: Tissue-nonspecific alkaline phosphatase (TNALP): heterodimeric N271Q/N303Q (protein)
parent chain: B1 parent chain
B12: Tissue-nonspecific alkaline phosphatase (TNALP): heterodimeric N271Q/N430D (protein)
parent chain: B1 parent chain
B13: Tissue-nonspecific alkaline phosphatase (TNALP): heterodimeric N303Q/N430D (protein)
parent chain: B1 parent chain
B14: Tissue-nonspecific alkaline phosphatase (TNALP): N303Q (protein)
parent chain: B1 parent chain
B15: Tissue-nonspecific alkaline phosphatase (TNALP): N430D (protein)
parent chain: B1 parent chain
B16: Tissue-nonspecific alkaline phosphatase (TNALP): N140Q/N271Q (protein)
parent chain: B1 parent chain
B17: Tissue-nonspecific alkaline phosphatase (TNALP): N140Q/N430D (protein)
parent chain: B1 parent chain
B18: Tissue-nonspecific alkaline phosphatase (TNALP): N230Q/N271Q (protein)
parent chain: B1 parent chain

Tests used:
[1] = SYPRO Orange thermal shift, pooled purified protein; settings: glycan lost; control: wild type
[2] = pNPP activity of supernatant, normalised to total protein; homodimeric double mutants; settings: glycan lost; control: wild type
[3] = anti-Flag capillary immunoblot of Flag-purified medium, pooled n=6; settings: glycan lost; control: wild type
[4] = weak anion-exchange HPLC with activity-based detection; settings: glycan lost; control: wild type
[5] = remaining pNPP activity after 15 min at 56 °C; homodimeric; settings: glycan lost; control: wild type
[6] = pNPP activity of supernatant; triple-site mutants; settings: glycan lost; control: wild type
[7] = pNPP activity of supernatant, normalised to total protein; homodimeric single mutants; settings: glycan lost; control: wild type
[8] = remaining pNPP activity after 56 °C; mutant:WT plasmid 1:1; settings: glycan lost; control: wild type
[9] = pNPP activity; mutant:WT plasmid 1:1 (heterodimers not confirmed); settings: glycan lost; control: wild type plasmid only
[10] = anti-Flag immunoblot, lysate vs medium, 1 μM MG-132 16 h; settings: glycan lost; control: wild type

Row | Protein | stability_or_folding, Tm [1] | enzymatic_activity, other: specific activity [2] | expression_or_secretion, fold_change [3] | other: HPLC isoform profile [4] | further results
1 | B1 | no change, 54.1 vs 54.5 | no change, 9.5 ± 6.5 vs 13.6 ± 6.6 | decreases, 0.4 vs 1.0 | no change | 
2 | B2 | increases, 55.7 vs 54.5 | no change, 9 ± 6 vs 13.6 ± 6.6 | decreases, 0.6 vs 1.0 | changes | 
3 | B3 | decreases, 52.9 vs 54.5 | decreases, 3.9 ± 2.8 vs 13.6 ± 6.6 | decreases, 0.4 vs 1.0 | changes | stability_or_folding, other: remaining activity [5]: decreases, 12 ± 1 vs 23 ± 4
4 | B4 | increases, 55.3, 69.7 vs 54.5 | decreases, 4.3 ± 3.4 vs 13.6 ± 6.6 | decreases, 0.7 vs 1.0 | changes | stability_or_folding, other: remaining activity [5]: increases, 63 ± 5 vs 23 ± 4
5 | B5 | increases, 55.3, 70.1 vs 54.5 | decreases, 4.7 ± 4 vs 13.6 ± 6.6 | decreases, 0.7 vs 1.0 | changes | stability_or_folding, other: remaining activity [5]: increases, 47 ± 13 vs 23 ± 4
6 | B6 |  |  |  |  | enzymatic_activity [6]: abolishes
7 | B7 |  |  |  |  | enzymatic_activity [6]: abolishes
8 | B8 |  |  |  |  | enzymatic_activity [6]: abolishes
9 | B9 | no change, 54.9 vs 54.5 |  | decreases, 0.4 vs 1.0 | no change | enzymatic_activity, other: specific activity [7]: no change
10 | B10 | no change, 54.5 vs 54.5 |  | decreases, 0.5 vs 1.0 | no change | enzymatic_activity, other: specific activity [7]: no change
11 | B11 |  |  |  |  | stability_or_folding [8]: no change; enzymatic_activity, percent_of_wt [9]: decreases
12 | B12 |  |  |  |  | stability_or_folding [8]: no change; enzymatic_activity, percent_of_wt [9]: decreases
13 | B13 |  |  |  |  | stability_or_folding [8]: no change; enzymatic_activity, percent_of_wt [9]: decreases
14 | B14 | decreases, 53.7 vs 54.5 |  | decreases, 0.5 vs 1.0 | no change | enzymatic_activity, other: specific activity [7]: no change
15 | B15 | increases, 55.7 vs 54.5 |  | decreases, 0.5 vs 1.0 | no change | enzymatic_activity, other: specific activity [7]: no change
16 | B16 | decreases, 53.7 vs 54.5 |  | decreases, 0.2 vs 1.0 |  | localisation_or_trafficking, fold_change [10]: changes
17 | B17 | increases, 56.5 vs 54.5 | decreases, 7 ± 4.3 vs 13.6 ± 6.6 | decreases, 0.6 vs 1.0 | changes | 
18 | B18 |  |  | abolishes, 0.0 vs 1.0 |  | localisation_or_trafficking, fold_change [10]: changes
